In doi:10.1101/2020.05.28.121053:
Read-outs that look alike come from different tables or passages of the source. Blank lines part the entries; values can stand above or below the molecule they belong to. Ends that are not written are not given here.

How the values were obtained:
Test in all cases: fluorescence polarisation
[1] = molecular target: mbGIPC PDZ domain (Monosiga brevicollis GIPC homologue, original construct) (Monosiga brevicollis)
[2] = molecular target: mbSHANK1 PDZ domain (Monosiga brevicollis SHANK1 homologue) (Monosiga brevicollis)
[3] = molecular target: mbGIPC PDZ domain (Monosiga brevicollis GIPC homologue, original construct) (Monosiga brevicollis); remark: listed apart in the source

Molecule: β-1 adrenergic receptor (B1AR) C-terminal peptide
fold worse affinity than GAIP [1]: 20 fold

Molecule: NDPAWDETNL (also: fluorescent label, kind and position not given here) [fluorescent β-PIX peptide]
fold higher affinity than the GIRK3 peptide [2]: 62 fold

Molecule: VEPKKSFDEI [decameric peptide matching the final 10 residues of the mbGIPC_(SFDEI) construct]
Ki [3]: > 1000 µM

Results, then the molecule that gave them:

Ki [1]: 0.14 µM
Molecule: GAIP C-terminal peptide

fold worse affinity than GAIP [1]: 10 fold
Molecule: tyrosinase-related protein 1 (TYRP1) C-terminal peptide
